Data set [1] deals with the molecule itself. In words: SDS-PAGE with tryptic digestion and mass spectrometry of the bands.
Data set [2] deals with the molecule itself. In words: SDS-PAGE and Western blot. A general note: A western blot detects proteins with antibodies after separation by electrophoresis.

In general, stoichiometry N refers to a count of units in the complex or per binding partner.

B1: Cryptococcus neoformans recombinant antiphagocytic protein 1 (rApp1) (natural protein)
chain: MMSSATAELCFDCANCVEMLPKGTTKSVTRPEILERLTRIENHIEVQTALLSTMAASKDYKKKVYTDDDDELEEPEVQLCNMTCEMAALKTYKPQTKVSNHKIVIEAALGRLDHVNGESSIRWAQSVILGLQAAETLQNDKQMMELARVIGCLEACELRWAGDWRAGVASITLKELRTLMI
Take B1: in data set [1], the “stoichiometry N” value was 2.

B2: App1 in total protein from C. neoformans WT (H99) (natural protein)
chain: MMSSATAELCFDCANCVEMLPKGTTKSVTRPEILERLTRIENHIEVQTALLSTMAASKDYKKKVYTDDDDELEEPEVQLCNMTCEMAALKTYKPQTKVSNHKIVIEAALGRLDHVNGESSIRWAQSVILGLQAAETLQNDKQMMELARVIGCLEACELRWAGDWRAGVASITLKELRTLMI
As for B2, in data set [2], the “stoichiometry N” value was determined as 2.

These data come from publication PMC5125079 (Mycopathologia, 2011).
